From the emibetuzumab library of Makowski et al. (2022)

B1: VH:VL chains; a variant is named by its letters at X, in order (parent)
chain 1: QVQLVQSGAEVKKPGASVKVSCKASGYTFTDYXMHWVRQAPGQGLEWMGXVNPNXXXTTYNQKFEGRVTMTTDTSTSTAYMELRSLRSDDTAVYYCARXNXLDXWGQGTTVTVSS
chain 2: DIQMTQSPSSLSASVGDRVTITCSVSSSVSSIYLHWYQQKPGKAPKLLIYSTSNLASGVPSRFSGSGSGTDFTLTISSLQPEDFATYYCQVYSGYPLTFGGGTKVEIK

Variants of: B1
Assay: yeast display scFab, FACS + sequencing
Summary of the method: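 Non-specific binding was called from deep sequencing of sorted yeast cells displaying a heavy-chain CDR mutant scFab library. Cells labelled with anti-Myc and biotinylated ovalbumin (260 μg/mL in PBSB, 3 h, room temperature) or soluble membrane proteins (130 μg/mL, 20 min on ice) were FACS-sorted, collecting the top 25% and bottom 10% of binders from two replicates. A sequence was positive when present in ≥3 of 4 pooled positive samples and absent from all negatives, and negative under the converse rule.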

Variant	non-specific binding call
SKEGGVGV	binds
YKARTSSS	binds
VKEKGAWS	no binding
VKEKGAWV	binds
VKEKGAWY	binds
DKEGGAAA	no binding
DKEGGAAV	no binding
DKEGGAAD	no binding
DKEGGYSV	no binding
FKAGGSGA	binds
SKEAGYSV	binds
DKAKGDGS	no binding
VKARGSLA	binds
DKEEADGV	no binding
YKARGSLV	binds
YKARGSLY	binds
YKEGDSGV chain 1 R87K	no binding
VKAGGSLY	binds
YKAGGSGV	binds
VKARSAGV	binds
VKEGGDGA	no binding
SKAGGVGA	binds
YKARGSAA	binds
DKEGGDGA	no binding
DKEGGDGY	no binding

Variant	non-specific binding call
DKEGGDGV	no binding
YKARGALS	binds
FKARGASV	binds
DKEGGDAS	no binding
DKEGGDAV	no binding
VKATAVAV	binds
VKARGSAV	binds
VKARGSAF	binds
FKARGALV	binds
VKEKGALD	binds
VKEKGDGS	no binding
FKEGGSAA	binds
DKATGDAY	no binding
YKEGGAGD	no binding
FKARGSGV	binds
DKEGGSLD	no binding
DKEGGSLV	no binding
AKAGSYGV	binds
VKARGAAV	binds
YKEGGSGD	no binding
FKEGNSLD	no binding
AKATADVD	binds
VKARGSVD	binds
VKARGSVA	binds
VKEGGSAD	binds

Variant	non-specific binding call
DKEGGSSA	no binding
DKEGGSSS	no binding
VKEGGSSA	no binding
VKAKGAAA	binds
YKEEDDAV	no binding
YKAGGYSD	binds
VKEADDVA	no binding
VKARNDLV	no binding
SKAGSDVA	no binding
VKARGSGV	binds
VKARGSGD	binds
VKARGSGA	binds
VKAGSDVA	no binding
SKAKGSAA	binds
YKEEDSLD	no binding
YKEKGDGA	no binding
DKEGGDVV	no binding
DKEGGDVD	no binding
DKEGGDVA	no binding
YKAKGAAD	binds
YKAKGAAA	binds
YKAKGAGD	binds
YKAKGSAV	binds
YKARGSSS	binds
DKEGGSAD	no binding

Variant	non-specific binding call
FKAGSSGV	binds
SKAKGAWD	binds
SKAKGAWS	binds
FKARDSSA	binds
YKARGAGA	binds
YKARGAGV	binds
YKEKGAVD	binds
YKAKGASV	binds
YKARGAVY	binds
YKARSALF	binds
YKAGGSLF	binds
SKAKGSSD	binds
FKAKGAWD	binds
YKAKGALD	binds
VKAGSAAA	no binding
SKAKGSGA	binds
SKAKGSGV	binds
VKAKDAGY	binds
DKEGGFGV	no binding
VKEGGDVA	no binding
VKEGGDVV	no binding
FKATTVVD chain 1 S88F	binds
YKAGGSAS	binds
FKEAGAVY	binds
SKAKGFGV	binds

Variant	non-specific binding call
FKARDSGD	binds
VKEADAWV	no binding
FKATTSGA	binds
DKEEDSLA	no binding
VKARGAGS	binds
VKARGAGV	binds
DKEGGSGV	no binding
DKEGGDLA	no binding
YKARGAAD	binds
YKARGAAY	binds
AKEADDVA	no binding
YKARGSWD	binds
VKEGGAVV	no binding
YKARGAWA	binds
YKARGAWD	binds
YKARGAWS	binds
YKEGAYAD	binds
YKARGSGA	binds
YKARGSGS	binds
FKARGSVD	binds
DKEGGAVV	no binding
